According to patent US20210253725A1 (BIONTECH, published 2021):

B1: P018.S.03.A.G02 (antibody, V domains shown)
VH: QSLEESGGDLVKPGASLTLTCTASGFSFSSGYDMCWVRQAPGKGLEWIACIYAGSNNNTYYASWAKGRFTISKTSSTTVTLQVASLTAADTATYFCARAAGGYADYAYVMGDYFNFWGPGTLVTVSS
VL: AYDMTQTPASVEVAVGGTVTIKCQASEDIYSILAWYQQKPGQRPKGLIYSASTLDSGVPLRFSGSGSGTEFTLTISGVQSDDAATYYCQQGYSSSNVDNVFGGGTEVVVK
notes: V regions on human Ig constant parts; also called AB27_56
B2: P018.S.03.A.B02 (antibody, V domains shown)
VH: QSLEESGGRLVTPGTPLTLTCTASGFSLSSYDMNWVRQAPGEGLEWIGTITTNSDTYYASWAKGRFTISKTSTTVDLKITSPTTEDTATYFCARGYTTFTLWGQGTLVTVSS
VL: DPVLTQTPSSASEPVGGTVTINCQASQNIYSNLAWYQQKPGQPPKLLIYGASTLESGVPSRFSGSGSGTQFTLTISDLESDDAATYYCQCTDYDSNYVVDFGGGTEVVVK
notes: V regions on human Ig constant parts; also called AB27_42
B3: P018.S.10.A.H01 (antibody, V domains shown)
VH: QEQLEESGGDLVKPGASLTLTCTASGFSFSSDYDMCWVSQAPGKGLEWIACIIGGSSDSTWYASWAKGRFTISKTSSTTVTLQVTGLTAADTATYFCARNVGFSYYDLWGPGTLVTVSS
VL: AQVLTQTPSPVSAAVGGTVTINCQASQSLYNNKNLAWYQQKPGQPPKLLIYYASTLASGVSSRFKGSGSGTQFTLTISGVQSDDAATYYCQGEFSCSSGDCFAFGGGTEVVVK
notes: V regions on human Ig constant parts; also called AB27_184
B4: P018.S.03.A.A02 (antibody, V domains shown)
VH: QSVEESGGRLVTPGTPLTLTCTVSGFSLSSYDMTWVRQAPGEGLEWIGYINTDTTTYYASWAKGRFTISRTSTTVDLEITSPTTEDTATYFCARGNDPIYIDLWGQGTLVTVSS
VL: AAVLTQTPSPVSAAVGGTVSISCQSSKSVINNNWLGWYQQKPGQPPKLLISYASTLASGVPSRFSGSGSGTQFTLTISDVQSDDAATYYCAGAYSPDSENAFGGGTEVVLK
notes: V regions on human Ig constant parts; also called AB27_41
B5: P018.S.07.A.B05 (antibody, V domains shown)
VH: QSLEESGGDLVKPGASLTLTCTASEFSFSNNYYICWVRQAPGKGLEWIACIYVHSGTTDYATWAKGRFTISRTSSTTVTLQMTSLTVADTATYFCARGRSGYYADAFDTWGPGTLVTVSS
VL: ALDMTQTPSPVSAAVGGTVTINCQASQSVYNNNNLAWYQQKPGQPPKLLIYLASNLASGVPSRFKGSGSGTQFTLTISEIQSDDAATYYCQGTDSSSGWEHAFGGGTEVVVK
notes: V regions on human Ig constant parts; also called AB27_117
B6: P018.S.08.A.D01 (antibody, V domains shown)
VH: QSVEESGGRLVMPGTPLTLTCTVSGFSLSTYVMGWVRQAPGKGLECIGVIYGGGTIWYASWAKGRFTISKTSTTMDLQITSPTTEDTATYFCARDGSSSGDPGFNLWGQGTLVTVSS
VL: DIVMTQTPASVSAAVGGTVTINCQASQSISNWVAWYQQKPGQPPKRLIYKASTLASGVPSRFKGSGSGTEFTLTISDLESADAATYYCQSTGSTAYGRAFGGGTEVVVR
notes: V regions on human Ig constant parts; also called AB27_137
B7: P018.S.01.A.F02 (antibody, V domains shown)
VH: QQQLVESGGGLVRPGASLTLTCKASGFSFSSGYYVCWVRQAPGKGLEWIACIFAGSGGGAGYATWAKGRFTISKTSSTTVTLQMTSLTAADTATYFCARPLSGYAYGMDLWGPGTLVTVSL
VL: DVVMTQTPASVSEPVEGTVTIKCQASQTISNYLAWYQQKPGQPPKLLIYGASTLESGVSSRFKGSGSGTQFTLTIYDLESADAATYYCQCTYDGSSDVGGAFGGGTEVVVK
notes: V regions on human Ig constant parts; also called AB27_19

Key:
[1] = biological target: T1, CD27 expressed on the cell surface (HT1080_CD27 cells) (human, UniProt P26842 20-260); test: cell-based or functional assay
T1 sequence (looked up): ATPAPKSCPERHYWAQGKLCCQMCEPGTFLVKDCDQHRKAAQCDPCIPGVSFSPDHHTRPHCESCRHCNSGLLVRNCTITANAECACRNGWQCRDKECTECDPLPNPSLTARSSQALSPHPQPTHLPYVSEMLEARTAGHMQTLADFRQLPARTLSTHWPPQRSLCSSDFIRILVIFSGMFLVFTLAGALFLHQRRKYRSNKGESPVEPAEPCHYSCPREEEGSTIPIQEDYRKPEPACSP

[2] = biological target: T1, CD27 expressed on the cell surface …; test: cellular binding assay, HT1080_CD27 cells
[3] = biological target: T2, CD27 protein (His-tagged, Sino Biological Inc. 10039-H08B1) (human, UniProt P26842 20-192); test: ELISA on coated His-tagged CD27
T2 construct: bought; coated onto ELISA plates; also called human CD27; recombinant protein; not shown: His tag
T2 sequence (looked up): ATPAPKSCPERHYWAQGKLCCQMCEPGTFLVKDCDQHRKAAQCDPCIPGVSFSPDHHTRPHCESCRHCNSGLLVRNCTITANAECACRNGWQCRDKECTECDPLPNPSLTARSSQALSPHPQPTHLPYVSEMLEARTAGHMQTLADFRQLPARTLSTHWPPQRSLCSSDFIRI
Note: test concentration or dose not given here.

Binder | IL-8, cross-linked by F(ab')2 fragment [abs. corr.] [1] | IL-8 [abs. corr.] [1] | Cellular binding assay [RFU] [2] | ELISA [abs. corr.] [3]
B1 | 1.28 abs. corr. | 0.412 abs. corr. | 275 RFU | 3.44 abs. corr.
B2 | 1.49 abs. corr. | 0.366 abs. corr. | 308 RFU | 3.41 abs. corr.
B3 | 2.29 abs. corr. | 0.412 abs. corr. | 443 RFU | 3.42 abs. corr.
B4 | 2.2 abs. corr. | 0.651 abs. corr. | 373 RFU | 3.44 abs. corr.
B5 | 1.41 abs. corr. | 0.203 abs. corr. | 295 RFU | 3.42 abs. corr.
B6 | 1.12 abs. corr. | -0.001 abs. corr. | 394 RFU | 3.42 abs. corr.
B7 | 2.05 abs. corr. | 0.495 abs. corr. | 326 RFU | 3.42 abs. corr.
